Data published in publication PMC6346578.

Assays:
[1] = target: T1, SACE_5754 (TetR family regulator) (Saccharopolyspora erythraea A226?) (UniProt A4FLL4); assay: EMSA; conditions: EMSA: 10 mM Tris pH 7.5, 5 mM MgCl2, 60 mM KCl, 10 mM DTT, 50 mM EDTA (so in the source), 10% glycerol, 30 C 10 min, 20 uL; 6% native PAGE, 1x TAE. Footprinting: …
T1 sequence: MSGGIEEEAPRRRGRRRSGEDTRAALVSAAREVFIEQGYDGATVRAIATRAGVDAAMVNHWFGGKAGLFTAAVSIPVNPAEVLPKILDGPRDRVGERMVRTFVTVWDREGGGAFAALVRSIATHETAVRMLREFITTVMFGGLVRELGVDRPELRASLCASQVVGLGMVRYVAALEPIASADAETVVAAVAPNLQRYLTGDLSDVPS

[2] = target: T1, SACE_5754 (TetR family regulator) (Saccharopolyspora erythraea A226?); assay: DNase I footprinting; conditions: EMSA: 10 mM Tris pH 7.5, 5 mM MgCl2, 60 mM KCl, 10 mM DTT, 50 mM EDTA (so in the source), 10% glycerol, 30 C 10 min, 20 uL; 6% native PAGE, 1x TAE. Footprinting: …

Sequence	binding [1]	binding [2]
CTGTGCAGTACCTGGAGGGCGGACCCTCCGGACGCGGGTTGTTCGTCGGTGTGCGCGGATGACCCGTGCGTTCGCGTTTTCCGTTCCTGGCACAGGTGATCCGCTCCACGGGCCCTTTCCCCGCCGTGACCGGACCCTTACAGTGAGTGCGGGTCTTGATCGACAACGCCCGGCGGCAGCAAGCGGAGCCGTCGACGACACCGCAGGGAGAGTCGATGGGTGATCGGACCGGCGACCGGACGATTCCGGAATCCTCGCAGACCGCAACGCGTTTCCTGCTCGGC (double strand) [PeryBVI]	no binding	–
CATCGTGCCCAGCCAGTCGAGGAGTGCGGTTTCGTCGGCCATGCCGGGAACTTCGTCGATGGTGGTCAACGTTCTCCTCGCGCAGCAGGTCGTTTCCACGTCGGCGAACACGCGTCGCGATCTTGAGCTTAGTCGCGCGCCGGACGGGGTGTCGAGACTTCCGCGGTGGCGGTGGGAACAGTGAGCACGGCGTCGAACGCGTCGCGCAGCGGCGTCCGCATCCACGTGCTCTGGGAGCGGATCCGGTCC (double strand) [PeryK]	no binding	–
TCGGCGCCTCCTCCTCGATGCCACCGCTCACACCGCCATCCTCGCTGTCGGCCGCTTCGGGGTGCAAAGCCGGGCTGCGCGCGGCACCCGCCCTGGCGGACGGCACAATTGGGGCATGGTGGGCGGCGACATCGGCAAGATCAGTC (double strand) [P5753-5754]	no binding	–
GGTGGCTTCTGGCGTGCTCATAACGCGTTCAGCGTATCCAGTCGGCTTCCGCCCTTGACCGGCGAGTCCCGGCAGGGCACCCTGAAGTTATTCAACATGCGTTGAAAACTTGGAGGATCGCGATGGAGCGAACGACGTGTTGC (double strand) [P6148-6149]	binds	binds
CGGACCGGAGTTCGAGGTACGCGGCTTGCAGGTCCAGGAAGGGGACGTCCATGCGAGTGTCCGTTCGAGTGGCGGCTTGCGCCCGATGCTAGTCGCGGTTGATCGGCGATCGCAGGTGCACGCGGTCGATCTTGACGGCTGGCGAGAGGTGCGGGGAGGATCTGACCGACGCGGTCCACACGTGGCACCGCGATGCTGTTGTGGGCTGGACAATCGTGCCGGTTGGTAGGATCCAGCGGTGAGCAGTTCGGACGAGCAGCCGCGCCCGCGTCGCCGCAACCAGGATCGGCAGCAC (double strand) [PeryCI-ermE]	no binding	–
TGCCCGAAAGGTAACCCCGCGGCGGGCAGGAAATCAACACTTGTTGAATTACGGTCGCGCACGCGCTCCGCGATCGCGCGGACACTTACCGCTTCGGGCGGAAATGCATTGCAAGCAAAGAAGATTGGGCCGTTCGGCGGCATCCGGGCCGAGTGGTCAAGCGCACAGAGAACTGAGTTGCCCGCGCCCGTCCGTGCGATGCATGCTTGCGTCCAGCAACTAGTTGGTTGCTGCAATCAAATCGGTTGCGCTCGCCGGGGG (double strand) [P0388-0389]	binds	binds
TCACCACCTGAAACCGCCACCGTTTTCCCGGAATCCGGCCACCGGAACCGGACCGGCCGAAATGGACATTCCGCCACGGTGCCGCGGGCGCCACCCGCACGCACGTTGAATTCAACACATGTTCAACAGCGTCGGAGGCGGGGATAATCGAACCCTGAGCGCCCGCCGAGCGTTCGCCACGGCCGCCATCGTCCGCGTGAGGAACCCATGACCAAGCA (double strand) [P3599]	binds	binds
GGCGGGCAGGAAATCAACACTTGTTGAATTACGGTCGCGCACGCGCTCCGCGATCGCGCGGACACTTACCGCTTCGGGCGGAAATGCATTGCAAGCAAAGAAGATTGGGCCGTTCGGCGGCATCCGGGCCGAGTGGTCAAGCGCACAGAGAACTGAGTTGCCCGCGCCCGTCCGTGCGATGCATGCTTGCGTCCAGCAACTAGTTGGTTGCTGCAATCAAATCGGTTGCGCTCGCCGGGGG (double strand) [Probe 1]	binds	–
